# T1: rabbit alpha2-Antiplasmin (rabbit (Oryctolagus cuniculus))
# T1 construct: Made in house in HEK293 cells, purified by Ni-IMAC and SEC (a His tag is implied but not described); also called rabbit A2AP; Oryctolagus cuniculus A2AP
# T1 chain: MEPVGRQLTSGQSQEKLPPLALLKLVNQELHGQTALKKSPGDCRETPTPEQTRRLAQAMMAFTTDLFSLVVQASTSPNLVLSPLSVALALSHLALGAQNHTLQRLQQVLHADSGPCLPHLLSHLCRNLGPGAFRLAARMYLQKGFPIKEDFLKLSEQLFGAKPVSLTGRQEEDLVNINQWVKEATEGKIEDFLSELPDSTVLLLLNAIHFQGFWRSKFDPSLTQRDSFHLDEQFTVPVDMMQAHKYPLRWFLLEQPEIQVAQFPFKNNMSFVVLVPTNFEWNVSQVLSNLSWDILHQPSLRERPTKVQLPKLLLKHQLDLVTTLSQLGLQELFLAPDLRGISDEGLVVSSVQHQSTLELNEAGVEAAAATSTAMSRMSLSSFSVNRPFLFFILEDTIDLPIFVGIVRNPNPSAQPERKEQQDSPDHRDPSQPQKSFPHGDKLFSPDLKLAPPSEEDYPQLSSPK
# T2: cynomolgus alpha2-Antiplasmin (cynomolgus (Macaca fascicularis), UniProt P08697 28-491 (human entry))
# T2 construct: Made in house in the same way as the rabbit protein; also called cynomolgus A2AP; Macaca fascicularis A2AP
# T2 chain: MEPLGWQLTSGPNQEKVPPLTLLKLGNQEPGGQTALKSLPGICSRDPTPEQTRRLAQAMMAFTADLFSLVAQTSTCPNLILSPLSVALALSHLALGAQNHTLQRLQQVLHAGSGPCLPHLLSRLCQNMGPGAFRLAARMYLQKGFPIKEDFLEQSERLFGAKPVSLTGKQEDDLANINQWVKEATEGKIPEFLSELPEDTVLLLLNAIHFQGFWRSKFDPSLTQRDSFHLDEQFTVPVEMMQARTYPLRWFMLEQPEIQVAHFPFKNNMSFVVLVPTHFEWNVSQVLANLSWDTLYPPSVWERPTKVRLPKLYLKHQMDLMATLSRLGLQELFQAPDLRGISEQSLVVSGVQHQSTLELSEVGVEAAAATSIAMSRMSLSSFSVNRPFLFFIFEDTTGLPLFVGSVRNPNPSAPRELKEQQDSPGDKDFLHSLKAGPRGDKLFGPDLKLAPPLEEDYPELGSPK
# T3: human alpha2-Antiplasmin (human, UniProt P08697 40-491)
# T3 construct: Bought (antibodies online, ABIN2544306); also called human A2AP; a2AP
# T3 sequence: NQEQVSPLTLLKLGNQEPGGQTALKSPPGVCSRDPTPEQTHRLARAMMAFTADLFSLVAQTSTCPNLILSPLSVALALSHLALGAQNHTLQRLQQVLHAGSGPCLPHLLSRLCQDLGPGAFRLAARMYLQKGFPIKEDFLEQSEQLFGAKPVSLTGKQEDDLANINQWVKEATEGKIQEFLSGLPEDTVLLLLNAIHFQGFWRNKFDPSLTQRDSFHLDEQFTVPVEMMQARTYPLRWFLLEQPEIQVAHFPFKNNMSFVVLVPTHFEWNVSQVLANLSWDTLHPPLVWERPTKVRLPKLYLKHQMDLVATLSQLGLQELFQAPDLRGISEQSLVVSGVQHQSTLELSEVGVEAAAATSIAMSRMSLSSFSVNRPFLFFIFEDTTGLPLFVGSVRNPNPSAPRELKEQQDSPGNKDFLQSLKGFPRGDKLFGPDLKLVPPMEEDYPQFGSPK
# B1: TPP-12387 hIgG1 (antibody, V domains shown)
# VH: EVQLLESGGGLVQPGGSLRLSCAASGFTFDDYAMSWVRQAPGKGLEWVSAIGTGGGTYYADSVKGRFTISRDNSKNTLYLQMNSLRAEDTAVYYCAREYYDSSGYYHLDYWGQGTLVTVSS
# VL: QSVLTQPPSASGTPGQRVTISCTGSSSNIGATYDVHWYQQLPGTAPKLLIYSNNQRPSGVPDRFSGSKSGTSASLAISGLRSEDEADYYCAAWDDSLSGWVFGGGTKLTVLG
# notes: Fully human IgG1 lambda from the BioInvent n-CoDeR Fab lambda library; parental lead antibody
# Legend:
# [1] = target: T1, rabbit alpha2-Antiplasmin; assay: SPR Biacore T200, antibody captured on protein G chip, A2AP as analyte, 25 C
# [2] = target: T2, cynomolgus alpha2-Antiplasmin; assay: as above
# human alpha2-Antiplasmin [3] = target: T3, human alpha2-Antiplasmin; assay: as above
# human alpha2-Antiplasmin [4] = target: T3, human alpha2-Antiplasmin; assay: ELISA (Example 3): antigen coated at 1 ug/ml, detection with anti-human lambda light chain-peroxidase and Amplex Red, RFU [left panel]
# Protocol: Binding activities towards human alpha2-Antiplasmin are shown in the left panel, towards rabbit alpha2-Antiplasmin are shown in the right panel of this figure. The binding activities were calculated as EC50 in M values.
# A standard ELISA format was used for analyzing the binding affinity of Fabs of this invention to human and rabbit alpha-2-Antiplasmin, respectively. Antigens were coated to black 384 well Maxisorp microtiter plates (Nunc; catalogue number 460518), diluted to a concentration of 1 μg/ml in 1× Coating Buffer (Candor Bioscience; catalogue number 121125). Plates were incubated overnight at 4° C. After overnight incubation, plates were washed 2× with 50 μl/well using PBS+0.05% Tween 20. Following this, 50 μl/well of blocking buffer (Smart Block; Candor Bioscience; catalogue number 113500) was added and the plates were incubated for 1 hour at room temperature. Afterwards, plates were washed for 3× using […] PBS+0.05% Tween 20 buffer. Fabs of this invention were added at different concentrations in a final volume of 30 μl/well. Plates were incubated for 1 hour at room temperature. Following this incubation step, plates were washed for 3× using 50 μl/well of a PBS+0.05% Tween 20 buffer. […]
# For measurement, the Infinite f500 reader (Tecan) was used.
# [5] = target: T1, rabbit alpha2-Antiplasmin; assay: cell-based or functional assay
# human alpha2-Antiplasmin [6] = target: T3, human alpha2-Antiplasmin; assay: cell-based or functional assay
binder,measurement,setting,value
B1,Kd,[1],43 nM
same,Kd,[2],100 nM
same,Kd,human alpha2-Antiplasmin [3],180 nM
same,EC50 (read off the curve),human alpha2-Antiplasmin [4],~100 nM
same,function blocking activity EC50 (FIG. 5 legend),[5],1.4 nM
same,"printed as 'binding activity' in the sentence on function blocking (IC50), 1st exp.",[5],14 nM
same,"printed as 'binding activity' in the sentence on function blocking (IC50), 2nd exp.",[5],13 nM
same,"printed as 'binding activity' in the sentence on function blocking (IC50), 3rd exp.",[5],15 nM
same,"function blocking activity IC50, 1st exp. (FIG. 5)",human alpha2-Antiplasmin [6],170 nM
same,"function blocking activity IC50, 2nd exp.",human alpha2-Antiplasmin [6],180 nM
same,"function blocking activity IC50, 3rd exp.",human alpha2-Antiplasmin [6],180 nM

# Source: US20240010750A1 (Bayer, published 2024)
